Measurements: patent publication US5158935A, “Human epidermal growth factor having substitution at position 11” (Chiron Corporation, priority 1989, dated 1992)

Key:
[1] = citrate buffer, pH 3, 45° C.
Description: Solutions of rhEGF and rhEGF-Glu11 were prepared in citrate buffer, pH 3, and were maintained at 45° C. Aliquots were drawn on days 0, 1, 7, and 15, and were analyzed by RP-HPLC (as described in Example 2).

[2] = forms isolated from recombinant yeast culture; cited from earlier work
[3] = stored as a lyophilized powder; cited from earlier work

Row | Molecule | degradation products versus original protein by RP-HPLC ([1]; by day 15) | degradation seen in RP-HPLC chromatograms ([1]; days 0, 1, 7 and 15) | EGF activity [2] | stability on storage [3]
1 | CC[C@H](C)[C@@H]1NC(=O)[C@H](Cc2ccc(O)cc2)NC(=O)CNC(=O)[C@H](C(C)C)NC(=O)[C@H](C(C)C)NC(=O)[C@@H](NC(=O)[C@H](CC(N)=O)NC(=O)[C@@H]2CSSC[C@@H]3NC(=O)[C@H](Cc4ccc(O)cc4)NC(=O)CNC(=O)[C@H](CC(=O)O)NC(=O)[C@H](Cc4c[nH]cn4)NC(=O)[C@H](CO)NC(=O)[C@H](CC(C)C)NC(=O)[C@@H]4CCCN4C(=O)[C@@H](NC(=O)[C@H](CCC(=O)O)NC(=O)[C@H](CO)NC(=O)[C@H](CC(=O)O)NC(=O)[C@H](CO)NC(=O)[C@@H](N)CC(N)=O)CSSC[C@H](NC(=O)[C@H](C(C)C)NC(=O)CNC(=O)[C@H](CC(=O)O)NC(=O)[C@H](Cc4c[nH]cn4)NC(=O)[C@H](CC(C)C)NC3=O)C(=O)N[C@@H](CCSC)C(=O)N[C@@H](Cc3ccc(O)cc3)C(=O)N[C@@H]([C@@H](C)CC)C(=O)N[C@@H](CCC(=O)O)C(=O)N[C@@H](C)C(=O)N[C@@H](CC(C)C)C(=O)N[C@@H](CC(=O)O)C(=O)N[C@@H](CCCCN)C(=O)N[C@@H](Cc3ccc(O)cc3)C(=O)N[C@@H](C)C(=O)N2)CSSC[C@@H](C(=O)N[C@@H](CCC(N)=O)C(=O)N[C@@H](Cc2ccc(O)cc2)C(=O)N[C@@H](CCCNC(=N)N)C(=O)N[C@@H](CC(=O)O)C(=O)N[C@@H](CC(C)C)C(=O)N[C@@H](CCCCN)C(=O)N[C@@H](Cc2c[nH]c3ccccc23)C(=O)N[C@@H](Cc2c[nH]c3ccccc23)C(=O)N[C@@H](CCC(=O)O)C(=O)N[C@@H](CC(C)C)C(=O)N[C@@H](CCCNC(=N)N)C(=O)O)NC(=O)[C@H](CCCNC(=N)N)NC(=O)[C@H](CCC(=O)O)NC(=O)CNC1=O [EGF-Asp11] | the degradation products outweighed the original rhEGF | rapidly degraded to rhEGF-isoaspartyl11 |  | 
2 | EGF-B: EGF-D wherein the C-terminal arg-leu has been removed (NSDSECPLSHDGYCLHDGVCMYIEALDKYACNCVVGYIGERCQYRDLKWWE; not fully specified; Epidermal growth factor; UniProt P01133 971-1021, looked up, fragment) |  |  | full EGF activity | 
3 | EGF-D: 52-amino acid sequence obtained by removing the C-terminal arg of EGF (NSDSECPLSHDGYCLHDGVCMYIEALDKYACNCVVGYIGERCQYRDLKWWEL; not fully specified; Epidermal growth factor; UniProt P01133 971-1022, looked up, fragment) |  |  | full EGF activity | stable
